What all share (assay): SPR, antibody captured, C2 as analyte;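 further: biacore SPR at 37 °C, anti-C2 mAbs captured via goat anti-human IgG on CM5 chips, double-referenced sensorgrams fit to a 1:1 kinetic or steady-state model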
Assay [1] deals with T1, human C2 N703A (human, UniProt P06681 21-752).
T1 sequence: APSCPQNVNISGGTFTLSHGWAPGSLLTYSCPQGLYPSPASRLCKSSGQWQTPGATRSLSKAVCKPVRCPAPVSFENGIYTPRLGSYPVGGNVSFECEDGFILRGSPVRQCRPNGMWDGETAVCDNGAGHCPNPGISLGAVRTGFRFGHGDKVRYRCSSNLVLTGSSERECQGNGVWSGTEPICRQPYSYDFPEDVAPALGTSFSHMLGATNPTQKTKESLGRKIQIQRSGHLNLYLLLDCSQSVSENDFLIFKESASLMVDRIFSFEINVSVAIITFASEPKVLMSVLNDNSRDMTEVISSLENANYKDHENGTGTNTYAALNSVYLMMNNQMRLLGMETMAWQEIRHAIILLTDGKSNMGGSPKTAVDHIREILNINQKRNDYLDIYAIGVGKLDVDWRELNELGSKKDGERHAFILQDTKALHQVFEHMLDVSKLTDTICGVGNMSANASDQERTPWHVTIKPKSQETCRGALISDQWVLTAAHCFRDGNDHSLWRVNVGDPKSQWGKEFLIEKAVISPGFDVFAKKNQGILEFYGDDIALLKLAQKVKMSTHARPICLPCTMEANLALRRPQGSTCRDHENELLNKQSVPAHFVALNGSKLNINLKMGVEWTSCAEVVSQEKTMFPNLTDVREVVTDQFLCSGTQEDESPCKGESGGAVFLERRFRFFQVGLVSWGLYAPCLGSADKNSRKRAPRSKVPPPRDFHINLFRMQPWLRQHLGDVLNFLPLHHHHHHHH

In assay [2] the target is T2, human C2 A717S (human, UniProt P06681 21-752).
T2 sequence: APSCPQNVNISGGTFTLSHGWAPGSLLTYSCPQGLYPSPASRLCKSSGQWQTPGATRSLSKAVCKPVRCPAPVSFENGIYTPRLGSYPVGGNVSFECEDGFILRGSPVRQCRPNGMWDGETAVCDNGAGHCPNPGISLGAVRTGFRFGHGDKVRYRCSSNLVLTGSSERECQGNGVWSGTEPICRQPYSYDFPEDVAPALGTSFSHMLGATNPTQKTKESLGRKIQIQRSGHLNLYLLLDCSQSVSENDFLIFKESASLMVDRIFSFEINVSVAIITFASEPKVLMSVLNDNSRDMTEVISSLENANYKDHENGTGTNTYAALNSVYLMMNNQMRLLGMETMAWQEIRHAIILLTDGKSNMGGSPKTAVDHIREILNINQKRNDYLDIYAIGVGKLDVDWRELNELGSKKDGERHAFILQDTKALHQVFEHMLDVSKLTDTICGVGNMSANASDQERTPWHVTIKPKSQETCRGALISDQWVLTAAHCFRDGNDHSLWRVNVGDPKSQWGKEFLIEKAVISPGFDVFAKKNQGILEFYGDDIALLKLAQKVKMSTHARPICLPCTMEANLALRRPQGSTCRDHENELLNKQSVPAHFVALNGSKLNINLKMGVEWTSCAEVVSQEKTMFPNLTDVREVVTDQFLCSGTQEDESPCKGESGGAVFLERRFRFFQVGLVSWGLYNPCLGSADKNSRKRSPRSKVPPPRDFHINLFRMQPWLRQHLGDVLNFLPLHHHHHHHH

Assay [3] has as its target T3, human C2 V465A (human, UniProt P06681 21-752).
T3 sequence: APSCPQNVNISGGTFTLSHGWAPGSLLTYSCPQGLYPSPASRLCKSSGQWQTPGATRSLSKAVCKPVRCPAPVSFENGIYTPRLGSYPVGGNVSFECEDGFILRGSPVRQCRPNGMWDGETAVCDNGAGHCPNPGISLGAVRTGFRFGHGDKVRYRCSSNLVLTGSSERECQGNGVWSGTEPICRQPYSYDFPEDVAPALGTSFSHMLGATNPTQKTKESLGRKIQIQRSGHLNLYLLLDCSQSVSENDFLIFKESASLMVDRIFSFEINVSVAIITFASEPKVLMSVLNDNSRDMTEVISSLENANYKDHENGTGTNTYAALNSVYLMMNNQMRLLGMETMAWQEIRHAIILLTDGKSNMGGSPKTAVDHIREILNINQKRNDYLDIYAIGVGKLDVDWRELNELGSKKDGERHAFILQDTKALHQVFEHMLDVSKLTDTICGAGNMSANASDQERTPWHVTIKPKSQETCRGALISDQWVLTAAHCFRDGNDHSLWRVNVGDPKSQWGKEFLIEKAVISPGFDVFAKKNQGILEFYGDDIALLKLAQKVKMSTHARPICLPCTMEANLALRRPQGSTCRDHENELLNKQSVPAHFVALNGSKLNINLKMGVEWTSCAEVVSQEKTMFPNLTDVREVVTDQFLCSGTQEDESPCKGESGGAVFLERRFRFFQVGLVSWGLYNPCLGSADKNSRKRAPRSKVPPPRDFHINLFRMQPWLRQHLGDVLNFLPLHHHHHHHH

Assay [4] has as its target T4, human C2 K711A (human, UniProt P06681 21-752).
T4 sequence: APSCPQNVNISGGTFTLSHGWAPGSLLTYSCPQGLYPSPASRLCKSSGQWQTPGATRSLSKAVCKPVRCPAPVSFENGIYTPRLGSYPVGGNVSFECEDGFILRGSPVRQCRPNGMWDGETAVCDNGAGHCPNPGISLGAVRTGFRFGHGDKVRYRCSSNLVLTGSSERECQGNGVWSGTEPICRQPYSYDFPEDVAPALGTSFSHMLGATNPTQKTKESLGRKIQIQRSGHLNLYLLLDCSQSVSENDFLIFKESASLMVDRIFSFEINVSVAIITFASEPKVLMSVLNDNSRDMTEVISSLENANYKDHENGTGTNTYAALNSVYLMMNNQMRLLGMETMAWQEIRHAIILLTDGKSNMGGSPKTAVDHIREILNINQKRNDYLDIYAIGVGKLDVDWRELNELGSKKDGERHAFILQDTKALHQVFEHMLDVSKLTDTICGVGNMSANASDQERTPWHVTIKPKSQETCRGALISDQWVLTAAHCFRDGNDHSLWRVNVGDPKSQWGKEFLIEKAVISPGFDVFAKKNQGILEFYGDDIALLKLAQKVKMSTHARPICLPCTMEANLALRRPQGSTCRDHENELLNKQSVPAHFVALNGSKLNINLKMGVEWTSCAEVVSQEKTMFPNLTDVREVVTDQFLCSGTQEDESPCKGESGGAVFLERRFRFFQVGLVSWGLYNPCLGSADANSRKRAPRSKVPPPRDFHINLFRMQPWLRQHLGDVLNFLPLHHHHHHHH

B1: RF16-226 (antibody, human IgG4 S228P, lambda)
heavy: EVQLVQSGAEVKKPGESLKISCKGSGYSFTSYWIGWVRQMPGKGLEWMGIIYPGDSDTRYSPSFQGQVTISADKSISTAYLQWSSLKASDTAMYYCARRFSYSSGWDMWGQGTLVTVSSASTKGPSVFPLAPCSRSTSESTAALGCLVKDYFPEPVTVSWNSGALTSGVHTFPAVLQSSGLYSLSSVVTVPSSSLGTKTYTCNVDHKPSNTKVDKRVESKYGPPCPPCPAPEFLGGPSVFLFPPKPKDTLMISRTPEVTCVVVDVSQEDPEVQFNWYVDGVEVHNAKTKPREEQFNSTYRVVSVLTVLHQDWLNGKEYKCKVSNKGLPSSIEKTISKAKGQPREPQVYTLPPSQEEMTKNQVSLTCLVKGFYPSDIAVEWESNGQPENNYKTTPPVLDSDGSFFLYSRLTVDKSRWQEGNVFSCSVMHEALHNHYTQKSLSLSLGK
light: SYELTQPPSVSVSPGQTARITCSGDALTSKYVAWYQQKSGLAPLLVIYEDTRRPSGIPAKFSGSSSGSVATLTISGAHGDDEADYYCYSTDASGHQRVFGGGTKLTVLSQPKAAPSVTLFPPSSEELQANKATLVCLISDFYPGAVTVAWKADGSPVKAGVETTKPSKQSNNKYAASSYLSLTPEQWKSHRSYSCQVTHEGSTVEKTVAPTECS
notes: pH-dependent anti-C2 antibody from a phage display library; also called WT
For B1, the Kd was 292 nM in assay [1], 406 nM in assay [2], 17.1 nM in assay [3] and 49.6 nM in assay [4].

As usually defined, the Kd is the free concentration of one partner at which half of the binding sites on the other are occupied at equilibrium, for simple one-to-one binding.

The values are drawn from patent publication US20220332804A1 (CSL INNOVATION, published 2022).
